Laboratory results from patent US20220281980A1 (Bristol-Myers Squibb, published 2022).

Legend:
[1] = molecular target: T1, human MICA/B endogenously expressed on SW480 cells (human, UniProt Q29983 24-383); assay: saturation binding of 125I-labelled antibody on SW480 cells, 25,000 cells/well (Scatchard analysis); x axis 'Ab' carries no unit, nM taken from paragraph 587; non-specific binding is nearly as high as specific binding
T1 construct: whole, on cells
T1 sequence (looked up): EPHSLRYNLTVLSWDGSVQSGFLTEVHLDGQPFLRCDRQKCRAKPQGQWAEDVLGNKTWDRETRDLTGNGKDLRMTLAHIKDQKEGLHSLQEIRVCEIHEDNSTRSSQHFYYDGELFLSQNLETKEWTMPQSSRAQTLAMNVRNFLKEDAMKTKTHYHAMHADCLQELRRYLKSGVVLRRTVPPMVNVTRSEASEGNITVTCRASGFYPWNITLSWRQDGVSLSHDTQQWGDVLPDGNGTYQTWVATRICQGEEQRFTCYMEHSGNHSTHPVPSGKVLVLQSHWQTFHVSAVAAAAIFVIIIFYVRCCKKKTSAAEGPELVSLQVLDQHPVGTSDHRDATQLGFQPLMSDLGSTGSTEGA
Method: (§1) Nonspecific binding was determined by binding in the presence of a titration of a 100 fold molar excess of unlabeled antibody and was subtracted from total counts per minute (CPM) to calculate specific binding. A linear standard curve of ¹²⁵I-MICA.36 concentration versus CPM was used to extrapolate specific activity, maximal nM bound ¹²⁵I-MICA.36 and thereby calculate receptor number per cell.
(§2) Specific activity of the iodinated MICA.36 was determined by plotting antibody titrations against the associated CPMs in a standard curve (FIG. 7A). The specific activity was calculated to be 164,214 CPM in 1 nM of ¹²⁵I-MICA.36. The number of receptors per cell was calculated by the following equation: (Bmax)×(Avogadro's number)×(Assay Volume)/# of cells per well.

[2] = molecular target: T2, human MICA/B endogenously expressed on 786-O cells (MICA allele *008) (human, UniProt Q29983 24-331); assay: saturation binding of 125I-labelled antibody on 786-O cells, 50,000 cells/well (Scatchard analysis); unit from the x axis 'nM Antibody'
T2 construct: it speaks of MICA/B, so MICB may be present as well; also called 786-0
T2 chain: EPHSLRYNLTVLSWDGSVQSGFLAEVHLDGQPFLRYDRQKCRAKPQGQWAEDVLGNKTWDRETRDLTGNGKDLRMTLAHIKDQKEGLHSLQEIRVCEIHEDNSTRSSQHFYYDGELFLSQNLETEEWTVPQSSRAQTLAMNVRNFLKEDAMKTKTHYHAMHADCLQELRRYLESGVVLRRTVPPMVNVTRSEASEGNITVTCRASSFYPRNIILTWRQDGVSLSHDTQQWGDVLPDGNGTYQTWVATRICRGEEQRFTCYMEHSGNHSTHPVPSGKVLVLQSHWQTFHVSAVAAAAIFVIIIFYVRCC
Method: as §1, §2

[3] = molecular target: T3, cynomolgus monkey MICA/B clone #4 expressed on CHO cells (cynomolgus monkey); assay: saturation binding of 125I-labelled antibody on CHO-MICA Cyno #4 cells, 25K per well (Scatchard analysis); unit from the x axis 'nM Radioligand'; curve not saturated at 20 nM
T3 construct: whole, on cells; also called cyno#4; CHO-cyno MICA clone #4
Method: as §1, §2

[4] = molecular target: T4, human MICB expressed on transduced cells (human, UniProt Q29980 23-382); assay: saturation binding of 125I-labelled antibody on CHO-MICB cells, 12500 per well; fit of total binding, non-specific binding not subtracted; x axis without unit
T4 construct: also called MICB*005
T4 chain: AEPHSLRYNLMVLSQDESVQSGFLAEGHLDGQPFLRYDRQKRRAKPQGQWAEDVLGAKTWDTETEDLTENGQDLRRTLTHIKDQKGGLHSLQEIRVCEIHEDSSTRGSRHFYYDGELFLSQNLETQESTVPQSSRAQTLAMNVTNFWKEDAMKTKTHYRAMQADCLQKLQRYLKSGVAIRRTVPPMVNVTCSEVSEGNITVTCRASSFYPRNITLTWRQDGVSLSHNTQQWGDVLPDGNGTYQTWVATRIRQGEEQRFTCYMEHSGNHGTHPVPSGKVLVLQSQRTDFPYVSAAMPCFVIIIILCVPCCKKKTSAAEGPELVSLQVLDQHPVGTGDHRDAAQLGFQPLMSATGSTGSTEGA
Method: as §1, §2

[5] = molecular target: T2, human MICA/B endogenously expressed on …; assay: saturation binding of 125I-labelled antibody on 786-O cells, 50,000 cells/well; fit of total binding, non-specific binding not subtracted
Method: as §1

[6] = molecular target: T1, human MICA/B endogenously expressed on …; assay: Scatchard analysis, 125I-MICA.36 on SW480 cells; SW480 cells (FIG. 7G)
Method: as §1, §2

[7] = molecular target: T5, human MICA*008 expressed on CHO cells (human, UniProt Q29983 24-331); assay: saturation binding of 125I-labelled antibody on CHO-MICA*008 cells, 12,500 cells/well (Scatchard analysis); specific = total minus binding with 100-fold unlabelled antibody; unit from the x axis 'nM Antibody'
T5 construct: also called MICA allele 008
T5 chain: T2 chain
Method: as §1, §2

[8] = molecular target: T1, human MICA/B endogenously expressed on …; assay: saturation binding of 125I-labelled antibody on SW480 cells, 25,000 cells/well; fit of total binding, non-specific binding not subtracted; x axis without unit
Method: as §1, §2

[9] = molecular target: T2, human MICA/B endogenously expressed on …; assay: Scatchard analysis, 125I-MICA.36 on 786-0 cells; 786-0 cells (FIG. 7F)
Method: as §1, §2

[10] = molecular target: T6, cynomolgus monkey MICA/B clone #6 expressed on CHO cells (cynomolgus monkey); assay: flow cytometry (GMFI, FACSCalibur), CHO cells with cyno MICA #6; unit from the x axis; curve from about 1500 at 0.1 ug/ml to about 40500 GMFI at 40 ug/ml
T6 construct: whole, on cells; also called cyno#6; CHO-cyno MICA clone #6

[11] = molecular target: T3, cynomolgus monkey MICA/B clone #4 …; assay: flow cytometry (GMFI, FACSCalibur), CHO cells with cyno MICA #4; unit from the x axis; curve from about 13000 at 0.1 ug/ml to about 94500 GMFI at 40 ug/ml

B1: MICA.36 (antibody, V domains shown)
VH: QVQLVESGGGVVQPGRSLRLSCAASGFTFSNYAMHWVRQAPGEGLEWVALIWYDGSNKFYGDSVKGRFTISRDNSKNTLYLQMNSLSAEDTAVYYCAREGSGHYWGQGTLVTVSS
VL: AIQLTQSPSSLSASVGDRVTITCRASQGISSALAWYQQKPGKVPKSLIYDASSLESGVPSRFSGSGSGTDFTLTISSLQPEDFATYYCQQFNSYPITFGQGTRLEIK
notes: it says that the name implies no specific constant region; Radioiodinated in the Scatchard assay; also called MICA.36 antibody
Kd [1]: 0.385 nM
Kd [2]: 0.356 nM
Kd [3]: 11 nM
Kd of the total-binding curve [4]: 2.8 nM
Kd of the total-binding curve [5]: 0.6 nM
Kd [6]: ~0.4 nM
Kd [7]: 1.07 nM
Kd of the total-binding curve [8]: 0.871 nM
Kd [9]: ~0.4 nM

B2: 19G6 (antibody, V domains shown)
VH: B1 VH
VL: B1 VL
notes: Hybridoma antibody from human IgG transgenic mice, parent of MICA.36; also called 19G6 mAb; hybridoma 19G6
EC50 [10]: 3.3 µg/mL
EC50 [11]: 0.161 µg/mL
